According to patent US12577303B2:
pEC50, pIC50: −log10 of the molar value. Like-named read-outs stand apart in the source and are kept apart here.

What was measured:
[1] = target: human Sirpα-V1 recombinant protein (human) (UniProt P78324); test: ELISA
[2] = target: human Sirpα-V1-hFc (human) (UniProt P78324); test: blocking ELISA: hSirpα (dimer) to CD47
[3] = target: human Sirpα-V1 on CHO-K1 hSirpα+ cells (human) (UniProt P78324); test: cell ELISA on CHO-K1 hSirpα+ cells
[4] = target: human Sirpα-V1 recombinant protein (human) (UniProt P78324); test: ELISA; remark: listed apart in the source
[5] = target: human Sirpα-V1 on CHO-K1 hSirpα+ cells (human) (UniProt P78324); test: cell ELISA on hSirpα-v1+ cell strain
[6] = target: human T cells (expressing Sirpγ) (human) (UniProt Q9P1W8); test: flow cytometry on human PBMC T cells, 10 µg/mL
[7] = target: human Sirpα-V1 recombinant protein (human) (UniProt P78324); test: ELISA; remark: listed apart in the source
human Sirpβ-his (human) = human Sirpβ-his (human) (UniProt O00241); test: ELISA
[8] = target: human Sirpα-V1-hFc (human) (UniProt P78324); test: blocking ELISA: hSirpα (dimer) to hCD47
[9] = target: human Sirpα-V1-his (human) (UniProt P78324); test: blocking ELISA: hSirpα to hCD47 (dimer)
[10] = target: human Sirpα-V1-his (human) (UniProt P78324); test: blocking ELISA: hSirpα to CD47 (dimer)
[11] = target: human T cells (expressing Sirpγ) (human) (UniProt Q9P1W8); test: flow cytometry on human PBMC T cells

Substance: positive control antibody 1 (Ref1, OSE-172)
- pEC50 [1]: 10.14
- pIC50 [2]: 8.43
- pEC50 [3]: 9.43
- pEC50 [4]: 9.77
- pEC50 [5]: 10.08
- proportion of cells with fluorescence intensity above 10^3 [6]: 0.49%
- pEC50 [7]: 10.24
- pEC50 (human Sirpβ-his (human)): 9.90
- pIC50 [8]: 8.34
- pIC50 [9]: 8.34
- pIC50 [10]: 8.38
- T-cell binding activity (% binding) [11]: 1.79%
